Laboratory results from patent US20220409701A1, “PROCESS FOR PRODUCING A TABLET COMPRISING GLP-1 PEPTIDES” (Novo Nordisk A/S, priority 2019, published 2022).

Test: Isoelectric point (pI) of the GLP-1 peptide
Assay type: physicochemical
Conditions: pH value where the peptide carries no net charge
Source text: Exemplary non-volatile bases are sodium hydroxide, potassium hydroxide, buffers selected from e.g. a phosphate buffer, a TRIS buffer, an acetate buffer. The ‘pI’ as used herein refers to the isoelectric point of the GLP-1 peptide, i.e. the pH value where the peptide carried no net charge.

Substance | pI
N^6,26-{18-[N-(17-carboxyheptadecanoyl)-L-γ-glutamyl]-10-oxo-3,6,12,15-tetraoxa-9,18-diazaoctadecanoyl}-[8-(2-amino-2-propanoic acid), 34-L-arginine]human glucagon-like peptide 1(7-37) [semaglutide] | about 5.4
Nε27-[2-[2-[2-[[2-[2-[2-[[(4S)-4-carboxy-4-[10-(4-carboxyphenoxy)decanoylamino]butanoyl]amino]ethoxy]ethoxy]acetyl]amino]ethoxy]ethoxy]acetyl], Nε36-[2-[2-[2-[[2-[2-[2-[[(4S)-4-carboxy-4-[10-(4-carboxyphenoxy)decanoylamino]butanoyl]amino]ethoxy]ethoxy]acetyl]amino]ethoxy]ethoxy]a cetyl]-[Aib8,Glu22,Arg26,Lys27,Glu30,Arg34,Lys36]-GLP-1-(7-37)-peptidyl-Glu-Gly [Compound A] | about 4.6
